# Experimental data reported in article PMC12578645 (Nature Microbiology, 2025).
# B1: WS.HSV-1.24 Fab (Fab, V domains shown)
# VH: QVQLKESGPGLVAPSQSLSITCTVSGFSLTTYGVTWVRQPPGKGLEWLGVIWGDGSTNYHSDLISRLSITKDNSKSQVFLKLSSLQADDTATYYCVSYYGYFDHWGQGTTLTVSS
# VL: DIQMTQSPSSLSASLGERVSLTCRASQDIGSSLNWLQQKPDGTIKRLIYATSSLDSGVPKRFSGSRSGSDYSLTISSLESEDFVDYYCLQYASSPPTFGGGTKLEIK
# notes: also called WS.HSV-24; source: IgG expressed in Expi293F and purified; reduced and alkylated, digested with immobilized papain; Fab purified (protein G negative selection, Superdex 75 gel filtration)
# B2: WS.HSV-1.24 IgG (antibody, V domains shown)
# VH: B1 VH
# VL: B1 VL
# notes: also called WS.HSV-24; source: Expi293F, purified (variable genes cloned into pVRC8400 with species-specific constant regions)
# B3: gB-Ecto.H516P.L531E (HSV-1 glycoprotein B ectodomain stabilized in the prefusion conformation) (domain or fragment)
# chain: not shown
# modifications: N-linked glycans (densities seen at 141, 398, 430 and 674)
# notes: also called H516P + L531E ectodomain; prefusion gB
# What was measured:
# [1] = target: T1, gB-Ecto.H516P.L531E (Human alphaherpesvirus 1, strain KOS, H516P | L531E); test: SPR; details: both partners purified
# T1 construct: also called gB-Ecto.516P.531E; prefusion gB; not shown: 8xHis-Tag, C-terminal, kept
# [2] = target: T2, gB-Ecto.H516P.L531E.DS (Human alphaherpesvirus 1, strain KOS, H516P | L531E | A240C | E607C); test: SPR; details: both partners purified
# T2 construct: also called gB-Ecto.H516P.L531E.A240C+E607C (DS); gB-Ecto.516P.531E.DS; not shown: 8xHis-Tag, C-terminal, kept
# [3] = target: T3, HSV-1 gB on infectious HSV-1 virions (Human alphaherpesvirus 1 (HSV-1), …, UniProt P06437); test: ELISA; virion-binding ELISA: plates coated with purified authentic live HSV-1 at 50,000 infectious particles per well; monoclonal antibodies in fivefold dilutions from 20 µg/ml; details: one partner purified
# T3 construct: also called authentic live virus; source: HSV-1 MacIntrye (VR-539; ATCC) propagated in Vero cells, virions purified by ultracentrifugation with a 25% sucrose cushion
# [4] = target: the molecule itself; test: cryo-EM structure
binder,measurement,setting,value
B1,Kd,[1],3.2 nM
same,Kd,[2],1.86 nM
B2,binding result,[3],binds
B3,stoichiometry N,[4],3
